In patent publication US20250389714A1, “PHARMACEUTICAL COMPOSITION FOR TREATING DISEASES RELATED TO TAUOPATHY” (SEOUL NATIONAL UNIVERSITY R&DB FOUNDATION, priority 2021, published 2025):
Entries after “also recorded” stand apart in the source; their conditions may differ. Each block holds one molecule with its values, some of them ahead of it.

Columns and labels:
[1] = biological target: T1, RAGE (Homo sapiens, UniProt Q15109); assay: Cell binding assay and calculation of dissociation constant (Kd) for RAGE binding; conditions: monomer equivalents of total Aβ42 or total tau; biotin-labeled oligomers, RAGE-overexpressing SH-SY5Y cells, 2 hours
T1 construct: RFP-tagged RAGE full-length (FL) or cytoplasmic domain deletion mutants (ΔCyto); expressed in transfected cells; host or cells: SH-SY5Y human neuroblastoma cells
T1 sequence (Q15109 23-404): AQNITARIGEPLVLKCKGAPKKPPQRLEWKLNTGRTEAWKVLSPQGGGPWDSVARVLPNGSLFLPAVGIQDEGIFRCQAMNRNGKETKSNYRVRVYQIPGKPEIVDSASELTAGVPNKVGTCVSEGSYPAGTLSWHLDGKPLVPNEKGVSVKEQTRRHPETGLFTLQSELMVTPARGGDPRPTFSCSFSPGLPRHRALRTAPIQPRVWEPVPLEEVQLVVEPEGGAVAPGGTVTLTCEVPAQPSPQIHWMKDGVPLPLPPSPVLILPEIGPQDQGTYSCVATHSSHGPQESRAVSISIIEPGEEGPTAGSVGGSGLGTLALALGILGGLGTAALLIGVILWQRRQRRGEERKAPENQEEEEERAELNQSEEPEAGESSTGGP
Experimental: FIG. 2c is a graph showing the results of analyzing RAGE binding affinities of tau oligomers (oTau) and Aβ42 oligomers (oAβ42). RAGE-overexpressing SH-SY5Y cells were treated with biotin-tau or Aβ42 oligomers for 2 hours, and the cell-bound biotin signal intensities in FIG. 12a were measured. The data were presented as mean±SEM (n=3-5), and the Kd of binding values were obtained from nonlinear regression analysis of saturated binding.
The purified tau monomers of the present invention were biotinylated using the Ez-Link Sulfo-NHS-LC-Biotinylation kit (Thermo Scientific) and then fibrillated as described above to form oligomers and fibrils. SH-SY5Y cells were transfected with RAGE cDNA for 24 hours and incubated with biotin-tau protein for 2 hours. Primary cortical neurons from WT and Rage KO mice (DIV 7) were then incubated with various concentrations of biotin-tau oligomers for 24 hours to estimate the Kd value for tau binding to RAGE. Cells were washed with Tris-buffered saline (TBS) and fixed with 4% paraformaldehyde for 20 min. The cells were then blocked with 10% FBS and 0.1% Triton X-100 in TBS for 1 hour and incubated with streptavidin-alkaline phosphatase conjugate (1:2000, Roche) at 4° C. for 16 hours. After washing with TBS, bound biotin-tau was visualized for 10 min using the […] liquid substrate system (Sigma-Aldrich). Images were acquired using INCell Analyzer 2000, and cell-bound biotin signals were measured using Image J. Kd values estimated for RAGE-binding were obtained from nonlinear regression analysis of saturated binding using Prism (GraphPad Software).

[2] = system: primary cortical neurons or hippocampal neurons; assay: Tau infection assay in primary cultured neurons; conditions: 500 nM DyLight 488-tau oligomers, 24 hours
[3] = system: rTg4510 mice; assay: Behavioral tests (Y-maze, novel object recognition, passive avoidance) in rTg4510 mice; type: in vivo, mouse; conditions: 1 mg/kg/day intraperitoneally, daily for 2.5 months from 2 months of age; tests at 4.5 months
[4] = system: RAGE-expressing SH-SY5Y cells; assay: Tau infection (intracellular DyLight 488-tau oligomers) in RAGE-expressing SH-SY5Y cells; type: cell-based, human; conditions: increasing concentrations of antagonist, 4 hours, 500 nM DyLight 488-tau oligomers
Experimental: (right) for 4 hours in the presence of 500 nM DyLight 488-tau or 125 nM FITC-Aβ42 oligomers. Fluorescence images were acquired, and intracellular DyLight 488 and FITC intensities were measured. The data were presented as mean±SEM (n=4).

[5] = biological target: human RAGE (receptor for advanced glycation end products), full-length, overexpressed in SH-SY5Y cells (human) (UniProt Q15109); assay: cell-based or functional assay
Chain of human RAGE (receptor for advanced glycation end products), full-length, overexpressed in SH-SY5Y cells (human) (Q15109 23-404): as above

[6] = system: RAGE-overexpressing SH-SY5Y cells; assay: Competition of tau oligomers and Aβ42 oligomers for uptake in RAGE-overexpressing SH-SY5Y cells; type: cell-based, human; conditions: increasing concentrations of DyLight 594-tau oligomers with 125 nM FITC-Aβ42 oligomers, 2 hours
Experimental: FIG. 12b is a graph showing the results of analyzing […] and FITC intensities in RAGE-overexpressing SH-SY5Y cells. The cells were treated with increasing concentrations of DyLight 594-tau oligomers (red) in the presence of 125 nM FITC-Aβ42 oligomers (green) for 2 hours. Fluorescence images were acquired, and intracellular DyLight 594 and FITC intensities were measured. The data were presented as mean±SEM (n=3).

[7] = biological target: T2, high molecular weight (HMW, 10-20 units) tau oligomers of 6xHis tagged human 0N4R tau (human, UniProt P10636-6 1-383, biotinylated or labelled with DyLight 488, depending on the assay; sites not stated); assay: cell binding assay: biotin-labelled HMW tau oligomers for 24 h on primary cortical neurons, streptavidin-alkaline phosphatase, BCIP/NBT; nonlinear regression of saturation binding; dashed ΔRage curve, whose points equal WT minus Rage KO; concentration as tau monomer equivalent
T2 construct: also called HMW tau oligomers; not shown: 6xHis tag from the pET-His vector
T2 sequence (P10636 other isoform, or with tags, fused parts or gaps): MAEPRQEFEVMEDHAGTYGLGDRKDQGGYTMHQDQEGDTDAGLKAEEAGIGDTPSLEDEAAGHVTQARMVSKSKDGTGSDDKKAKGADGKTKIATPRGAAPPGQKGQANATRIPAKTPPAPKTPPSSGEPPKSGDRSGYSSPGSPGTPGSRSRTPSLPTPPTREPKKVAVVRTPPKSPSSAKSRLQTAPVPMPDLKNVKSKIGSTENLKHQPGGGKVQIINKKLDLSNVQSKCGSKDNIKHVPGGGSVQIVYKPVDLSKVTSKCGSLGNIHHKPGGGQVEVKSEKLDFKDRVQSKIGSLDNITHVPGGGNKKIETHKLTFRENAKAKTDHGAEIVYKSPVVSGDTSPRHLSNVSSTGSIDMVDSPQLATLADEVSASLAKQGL

[8] = biological target: T3, low molecular weight (LMW, 2-4 units) tau oligomers of 6xHis tagged human 0N4R tau (human, UniProt P10636-6 1-383, biotinylated or labelled with DyLight 488, depending on the assay; sites not stated); assay: cell binding assay: biotin-labelled LMW tau oligomers for 24 h on primary cortical neurons, streptavidin-alkaline phosphatase, BCIP/NBT; nonlinear regression of saturation binding; dashed ΔRage curve, whose points equal WT minus Rage KO; concentration as tau monomer equivalent
T3 construct: also called LMW tau oligomers; not shown: 6xHis tag from the pET-His vector
T3 sequence (P10636 other isoform, or with tags, fused parts or gaps): as above

Molecule: O=C(c1ccc(Cl)cc1)N(Cc1ccccc1)C1CCCCC1 [FPS-ZM1]
tau infection into neurons ([2]; WT cortical neurons, 1 μM antagonist): inhibited tau infection; also recorded: reduces neuronal tau infection
cognitive function (spatial and working memory) of rTg4510 mice [3]: significantly alleviated cognitive impairment; also recorded: significant retention of spatial and working memory; also recorded: ameliorated the behavioral impairment
tau infection into RAGE-expressing SH-SY5Y cells [4]: inhibited tau infection

Molecule: heparin
tau oligomer transfection into Rage KO neurons ([2]; Rage KO neurons, 15 U/ml heparin): efficiently blocked
neuronal uptake of tau oligomers into WT neurons ([2]; WT neurons, 15 U/ml heparin): reduced neuronal uptake of tau oligomers

Molecule: LMW tau oligomers: low molecular weight tau oligomers (2-4 units) of recombinant human 0N4R tau
Kd [1]: 205 nM

Molecule: tau oligomers: oligomers of recombinant 6×His tagged human 0N4R tau formed with heparin
intracellular transfection of Aβ42 oligomers [6]: efficiently reduced the intracellular transfection of Aβ42 oligomers

Continued, values first:

Kd [1]: 17 nM
Molecule: Aβ42 oligomers: oligomers prepared from synthetic biotin- or FITC-labeled Aβ42 peptide (rPeptide)

Kd [1]: 51 nM
Molecule: HMW tau oligomers: high molecular weight tau oligomers (10-20 units) of recombinant human 0N4R tau

Intracellular DyLight 488 Intensities (AU) [5]: 9.55 AU
Molecule: DyLight 488-tau aggregates (His-tagged human tau aggregated with heparin, used in the cDNA screen) (from UniProt P10636 1-383) (ligand)

Kd [7]: 25 nM
Kd [8]: 43.5 nM
B1: mouse RAGE, endogenous, on primary cultured WT mouse neurons (against Rage KO neurons) (receptor, UniProt Q62151 23-402, looked up)
chain: GQNITARIGEPLVLSCKGAPKKPPQQLEWKLNTGRTEAWKVLSPQGGPWDSVARILPNGSLLLPATGIVDEGTFRCRATNRRGKEVKSNYRVRVYQIPGKPEIVDPASELTASVPNKVGTCVSEGSYPAGTLSWHLDGKLLIPDGKETLVKEETRRHPETGLFTLRSELTVIPTQGGTHPTFSCSFSLGLPRRRPLNTAPIQLRVREPGPPEGIQLLVEPEGGIVAPGGTVTLTCAISAQPPPQVHWIKDGAPLPLAPSPVLLLPEVGHEDEGTYSCVATHPSHGPQESPPVSIRVTETGDEGPAEGSVGESGLGTLALALGILGGLGVVALLVGAILWRKRQPRREERKAPESQEDEEERAELNQSEEAEMPENGAGGP
notes: whole, on cells
